What is called Kd is the constant that tells how readily two partners part at equilibrium.

In experiment [1] the target is dimeric suPAR (human) (UniProt Q03405). The experiment is described as follows: SEC; suPAR dimer mixed with excess ATF, 30 min at room temperature; complex purified on Superdex 200 10/300 (20 mM Tris pH 7.4, 150 mM KCl) and quantified by SDS-PAGE. Background: Size exclusion chromatography separates by hydrodynamic size, large species first.
The target is the same in experiment [2]. The experiment is described as follows: SPR; Biacore T200; suPAR monomer or dimer captured on anti-uPAR antibody immobilised on a CM5 chip; ATF (0.14-33.3 nM) or scuPA (0.54-44.4 nM) flowed over; 10 mM HEPES, 150 mM NaCl, 3 mM EDTA, 0.005% P-20, pH 7.4, 20 °C; 1:1 Langmuir fit. (Surface plasmon resonance follows binding to a sensor surface in real time, without labels.)

A further experiment has as its target FITC conjugated ATF. Put plainly: high-content fluorescence imaging of FITC-ATF on 293T cells (FITC/mRuby3 intensity ratio). The following applies: FITC-ATF for 1 h; uPAR-mRuby3 expressing 293T cells; parent: est. 0.41; read off a plot.

UniProt Q03405, sequence (Q03405 23-299): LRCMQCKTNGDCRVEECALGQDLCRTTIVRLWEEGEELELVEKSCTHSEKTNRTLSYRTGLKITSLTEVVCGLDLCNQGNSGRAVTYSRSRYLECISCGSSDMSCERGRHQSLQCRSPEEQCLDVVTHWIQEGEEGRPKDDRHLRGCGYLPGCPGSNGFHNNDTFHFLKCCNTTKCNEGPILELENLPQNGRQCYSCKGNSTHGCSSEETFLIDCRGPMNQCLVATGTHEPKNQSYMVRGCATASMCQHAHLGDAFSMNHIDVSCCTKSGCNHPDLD

As for “amino terminal fragment of uPA (ATF) (domain or fragment)”, the stoichiometry N (ATF molecules per uPAR dimer) with dimeric suPAR (human) [1] was 2. For the same substance, the Kd in the experiment with dimeric suPAR (human) [2] was 0.672 nM.
On to “uPAR^WT fused with mRuby3 (suPAR-mRuby3-GPI) (from UniProt Q03405) E49P”, for which the response with FITC conjugated ATF was found to be 0.43.
Regarding “uPAR^WT fused with mRuby3 (suPAR-mRuby3-GPI) (from UniProt Q03405) H47C; N259C”, the response with FITC conjugated ATF worked out at 0.27.

Source of the values: PMC8964761.
